Test results reported in patent US20050176123A1, “Protease inhibitor” (Morinaga Milk Industry Co., Ltd., priority 2002, published 2005).

Experiments:
Test in all cases: cysteine protease inhibitory activity (Z-Phe-Arg-MCA fluorescence, method of Barrett et al.)
Type in all cases: biochemical
[1] = biological target: T1, cathepsin B (Homo sapiens, UniProt P07858)
T1 construct: purchased Wako Pure Chemical Industries, Ltd
Protocol: (§1) Inhibitory activities against cysteine proteases including papain, cathepsin B, cathepsin L and cathepsin S (these proteases are available from Wako Pure Chemical Industries, Ltd.) were determined using commercially available bovine lactoferrin (manufactured by Morinaga Milk Industry Co., Ltd.) as a test sample. The inhibitory activity was measured with reference to the method by Barrett et al. (“Methods in Enzymology,” Vol. 80, p 535-561, 1981) as described below. Namely, Z-Phe-Arg-MCA (final concentration of […]: manufactured by Peptide Institute, Inc.) was added as a substrate to 0.1 M acetic acid buffer solution (pH 5.5) in which sample was dissolved at each concentration. Then, cysteine protease (a protease selected from papain, cathepsin B, cathepsin L and cathepsin S in the present test: manufactured by Wako Pure Chemical Industries, Ltd.) solution (final concentration: 15 units/ml) was added, the whole solution was mixed and the reaction was carried out at 37° C. for 10 minutes. Subsequently, fluorescence intensity (excitation wavelength: 370 nm, emission wavelength: 460 nm) of AMC (7-Amino-4-Methyl-Coumarin) released from the digested substrate was measured with a fluorescence spectrometer (manufactured by Hitachi, Ltd.).

[2] = biological target: T2, cathepsin L (Homo sapiens, UniProt P07711)
T2 construct: purchased Wako Pure Chemical Industries, Ltd
Protocol: as §1

[3] = biological target: T3, papain (Carica papaya, UniProt P00784); conditions: pH 5.5, 37° C., 10 minutes
T3 construct: purchased Wako Pure Chemical Industries, Ltd
T3 sequence (P00784 134-345): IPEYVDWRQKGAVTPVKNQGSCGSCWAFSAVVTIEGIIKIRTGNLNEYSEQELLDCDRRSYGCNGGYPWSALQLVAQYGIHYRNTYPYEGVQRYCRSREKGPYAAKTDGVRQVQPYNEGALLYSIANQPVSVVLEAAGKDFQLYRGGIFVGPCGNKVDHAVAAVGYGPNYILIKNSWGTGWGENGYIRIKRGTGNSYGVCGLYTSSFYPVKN
Protocol: as §1

[4] = inhibitor 10^−3 M, pH 5.5, 37° C., 10 minutes

T2 sequence (P07711 114-333, species assumed): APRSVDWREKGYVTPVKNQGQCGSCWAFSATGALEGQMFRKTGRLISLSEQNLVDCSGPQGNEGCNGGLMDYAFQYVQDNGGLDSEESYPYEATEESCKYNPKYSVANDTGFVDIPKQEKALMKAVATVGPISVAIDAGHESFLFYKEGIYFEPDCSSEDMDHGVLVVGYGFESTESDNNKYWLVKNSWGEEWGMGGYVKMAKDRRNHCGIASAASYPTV

Substance	cysteine protease-inhibitory activity compared with human lactoferrin peptide Y679-K695 ([1]; similar test to Test Example 5)	cysteine protease-inhibitory activity compared with human lactoferrin peptide Y679-K695 ([2]; similar test to Test Example 5)	inhibition of cysteine protease activity [1, 4] [%]	inhibition of cysteine protease activity ([3]; inhibitor 10^−3 M)	inhibition rate at each concentration (%) ([3]; inhibitor 10^−4M)	inhibition of cysteine protease activity [2, 4]	inhibition rate at each concentration (%) ([2]; inhibitor 10^−4M, pH 5.5, 37° C., 10 minutes)
bovine lactoferrin peptide Y676-K692: peptide having amino acid numbers 676-692 of SEQ ID No. 2 (bovine lactoferrin), chemically synthesized (YEEYLGTEYVTAIANLK; sig_peptide (1)...(19) Lactoferrin; listed as Bos taurus)	almost equal to the human lactoferrin peptide Y679-K695	almost equal to the human lactoferrin peptide Y679-K695					
human lactoferrin peptide Y679-K695: peptide having amino acid numbers 679-695 of SEQ ID No. 1 (human lactoferrin), chemically synthesized (YEKYLGPQYVAGITNLK; sig_peptide (1)...(19) Lactoferrin; listed as Homo Sapiens)			~60	almost completely inhibited	more than 50%	almost completely inhibited	more than 50%
